According to publication PMC314469, “Protein Interaction Networks by Proteome Peptide Scanning” (PLoS Biology, 2004):

T1: amphyphisin SH3 (AMPH_HUMAN), P49418
T1 chain: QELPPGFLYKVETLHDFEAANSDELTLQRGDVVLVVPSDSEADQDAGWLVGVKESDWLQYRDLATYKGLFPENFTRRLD


What was measured:
[1] = molecular target: T1, amphyphisin SH3 (AMPH_HUMAN), P49418; test: SPOT array
[2] = molecular target: endophilin SH3 (SH3G2_HUMAN), Q99962; test: SPOT array

Binder	normalised SPOT signal, Boehringer light units (BLU); mean over the file's lines of this peptide [1]	normalised SPOT signal, Boehringer light units (BLU); mean over the file's lines of this peptide [2]
PPPLPQRPPPRLPP [Q9H9H4 263-277]	2170	2770
PPLEPARPNRHPES [Q9H293 60-73]	282	0
PPPLPNKPPPEDYY [Q8TED9 137-151]	42.3	92.7
PPQSPRRPELPDLA [Q00973 42-55]	51.7	164
AARTLRRPKALDSG [Q96RY6 273-286]	7.6	0
PPPPPPRPPSRPKL [Q9BQI5 457-471]	13700	13400
PPQVPSRPTRAPPR [Q9H0P3 825-838]	6350	11000
PPPPPPRPPKQQPP [Q9UL51 22-36]	994	1160
PPLLPGRPARDRGP [Q9Y6J0 1777-1790]	6220	27100
PPQVPSRPNRAPPG [Q05193 829-842]	11000	19600
PPRKIKRPKRKMYR [Q96PV3 296-309]	17.3	30.1
PPLPPPRPPRPPSP [Q9UPS6 160-174]	5630	8000
PPLLPPRPPQGLEP [Q8TEH3 833-847]	107	335
PPKWIRRPTGVSFA [Q9NQW1 380-393]	42.3	433
PPPPPLRPPPPPPP [Q9BR93 13-27]	283	1160
PPPIPKKPPKGKFP [Q9P1A6 952-966]	64.7	3890
PPPPPARPPARRAS [Q9H1V5 1094-1108]	11500	13100
PPGKPERPPPQGGN [P10163 115-129]	59.4	760
ASAPPRRPRPPPQS [Q9UEI9 3-16]	914	1320
PPPPPTKPPETEAQ [Q9UJJ7 281-295]	59.9	63.1
PPPPPERPPPIPPD [Q13191 554-568]	29.1	74.8
PPPVPLRPPEHFIN [Q07890 1215-1229]	189	435
PPQVPSRPTRAPPS [Q9UQ16 664-677]	8780	12700
ASGGPRRPERHLPP [Q9Y6R0 7-20]	3320	12600
PPEKPPRPPRPLHL [Q8TEL4 110-124]	14400	29300
PPPRPPRPPSPPPE [Q9UPS6 163-177]	5310	9410
ASATLGRPPRIPEP [Q9H0P6 178-191]	139	65.5
PPPPIPRPAKLQAA [Q9HCG4 308-321]	91	102

Second part, the binder after the results:

normalised SPOT signal, Boehringer light units (BLU); mean over the file's lines of this peptide [1]	normalised SPOT signal, Boehringer light units (BLU); mean over the file's lines of this peptide [2]	Binder
170	1020	PPPTPRRPASVNGS [O43584 96-109]
1320	9250	PPGPPTRPPGPWRW [O15354 108-122]
41.1	642	PPKWIRRPVGASFS [O94979 386-399]
4490	7190	PPLLPRRPPPRVPA [O15056 1170-1184]
7550	13900	PPKRPGRPPKNRES [P55201 903-917]
8890	37500	PPQIPSRPVRIPPG [P50570 828-841]
1380	9830	PPQPPQRPPPPTGL [O15056 1050-1064]
433	5470	PPGLPPRPPLSSSS [Q13470 532-546]
1930	9490	PPPLPRRPSTPRQG [O75412 1048-1061]
316	2890	PPPKPNRPPNVDLT [O15117 355-369]
3200	649	ASFQPARPHRARHP [O95612 13-26]
1290	14300	PPPPPPRPSKPTPS [Q14956 325-338]
1280	2410	PPHLPARPPGGWSR [BAC04291 42-56]
61.4	312	PPGKPERPPPQGGD [P81489 133-147]
